Data: patent EP4810513A1 (Genexine, Inc., dated 2026)
Residue numbers refer to the chain shown, from its start.

T1: huSOX3 with C-terminal 6×His-tag, produced by Biointron (human, UniProt P41225 1-446)
T1 sequence: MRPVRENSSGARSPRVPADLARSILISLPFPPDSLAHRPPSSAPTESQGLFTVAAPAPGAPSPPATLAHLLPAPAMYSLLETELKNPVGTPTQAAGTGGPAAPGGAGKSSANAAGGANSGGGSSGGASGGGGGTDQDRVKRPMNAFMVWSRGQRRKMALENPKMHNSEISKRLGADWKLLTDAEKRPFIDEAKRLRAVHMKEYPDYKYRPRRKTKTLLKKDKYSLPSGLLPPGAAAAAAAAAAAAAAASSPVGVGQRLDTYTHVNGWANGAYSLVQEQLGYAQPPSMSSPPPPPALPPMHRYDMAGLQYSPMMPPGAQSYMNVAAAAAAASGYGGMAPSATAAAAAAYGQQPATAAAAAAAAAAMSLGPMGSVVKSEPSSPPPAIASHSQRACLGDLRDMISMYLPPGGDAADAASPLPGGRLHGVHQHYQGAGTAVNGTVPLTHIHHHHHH

B1: 2E8 with N-terminal NanoLuc tag (pNLF1-N-2E8), expressed in HEK293T cells (VHH)
VHH: EVQLVESGGGLVQPGGSLRLSCAASGFTLDYYGMGWFRQAPGKEREFVAAISRSGGSTVYADSVKGRFTISADNSKNTAYLQMNSLKPEDTAVYYCAREVVRGGINYWGQGTLVTVSS
notes: NanoBRET donor construct; not shown: NanoLuc tag
B2: 3F11 with N-terminal NanoLuc tag (pNLF1-N-3F11), expressed in HEK293T cells (VHH)
VHH: DVQLVESGGGLVQPGGSLRLSCATSGFTFSSSTMSWVRQVPGAGPEWVAVDNPGGKKNYIDSVAGRFTIARDNDANSLSLVMNGLRPEDTARYFCARVLSFKIYEGDKWALEWDYRGPGTQVTVSS
notes: as for B1
B3: 3H9 with N-terminal NanoLuc tag (pNLF1-N-3H9), expressed in HEK293T cells (VHH)
VHH: QVQLVESGGEQVQPGSSLKLSCSVSGLMISGHAMSWVRQVPGAGPEWVAVDNPGGKKNYIDSVAGRFTIARDNDANSLSLVMNGLRPEDTARYFCARVLSFKIYGGDKWALEWDYRGPGTQVTVSS
notes: as for B1
B4: 3A2.005 (Flag-tag - 3A2 - GS linker - SPOP 167-374) (other)
chain: DYKDDDDKTREVQLVESGGEQVQPGSSLKLSCSVSGLMISGHAMSWVRQVPGAGPEWVAVDNPGGKKNYIDSVAGRFTIARDNDANSLSLVMNGLRPEDTARYFCARVLSFKIYEGDKWALEWDYRGPGTQVTVSSGSSVNISGQNTMNMVKVPECRLADELGGLWENSRFTDCCLCVAGQEFQAHKAILAARSPVFSAMFEHEMEESKKNRVEINDVEPEVFKEMMCFIYTGKAPNLDKMADDLLAAADKYALERLKVMCEDALCSNLSVENAAEILILADLHSADQLKTQAVDFINYHASDVLETSGWKSMVVSHPHLVAEAYRSLASAQCPFLGPPRKRLKQS
B5: 3A2.007 (Flag-tag - 3A2 - GS linker - CHIP 128-303) (other)
chain: DYKDDDDKTREVQLVESGGEQVQPGSSLKLSCSVSGLMISGHAMSWVRQVPGAGPEWVAVDNPGGKKNYIDSVAGRFTIARDNDANSLSLVMNGLRPEDTARYFCARVLSFKIYEGDKWALEWDYRGPGTQVTVSSGSRLNFGDDIPSALRIAKKKRWNSIEERRIHQESELHSYLSRLIAAERERELEECQRNHEGDEDDSHVRAQQACIEAKHDKYMADMDELFSQVDEKRKKRDIPDYLCGKISFELMREPCITPSGITYDRKDIEEHLQRVGHFDPVTRSPLTQEQLIPNLAMKEVIDAFISENGWVEDY
B6: 3A2.011 (Flag-tag - TRIM21 2-85 - GS linker - 3A2) (other)
chain: DYKDDDDKTRASAARLTMMWEEVTCPICLDPFVEPVSIECGHSFCQECISQVGKGGGSVCPVCRQRFLLKNLRPNRQLANMVNNLKEISQEAREGSEVQLVESGGEQVQPGSSLKLSCSVSGLMISGHAMSWVRQVPGAGPEWVAVDNPGGKKNYIDSVAGRFTIARDNDANSLSLVMNGLRPEDTARYFCARVLSFKIYEGDKWALEWDYRGPGTQVTVSS
B7: 3A2.012 (Flag-tag - 3A2 - GS linker - RNF4 71-190) (other)
chain: DYKDDDDKTREVQLVESGGEQVQPGSSLKLSCSVSGLMISGHAMSWVRQVPGAGPEWVAVDNPGGKKNYIDSVAGRFTIARDNDANSLSLVMNGLRPEDTARYFCARVLSFKIYEGDKWALEWDYRGPGTQVTVSSGSDERRRPRRNARRLPQDHADSCVVSSDDEELSRDRDVYVTTHTPRNARDEGATGLRPSGTVSCPICMDGYSEIVQNGRLIVSTECGHVFCSQCLRDSLKNANTCPTCRKKINHKRYHPIYI
B8: 1C2 (anti-huSOX2 VHH antibody clone) (VHH)
VHH: EVQLVESGGGLVQPGGSLRLSCAASGSTYTTYSMGWFRQAPGKEREFVAAIRWSGGTTYYADSVKGRFTISADNSKNTAYLQMNSLKPEDTAVYYCASRVDDRVWGQGTLVTVSS
notes: Clone from the VHH phage library panning; tested as individual colony in ELISA screening
B9: 1A5 (anti-huSOX2 VHH antibody clone) (VHH)
VHH: B8 VHH with A49G, R52H, T57R
notes: as for B8
B10: 1A9 (anti-huSOX2 VHH antibody clone) (VHH)
VHH: B8 VHH with S27R, Y29F, T30S, S54T, G55A
notes: as for B8
B11: 1A11 (anti-huSOX2 VHH antibody clone) (VHH)
VHH: B8 VHH with R52H, T57G
notes: as for B8
B12: 1C11 (anti-huSOX2 VHH antibody clone) (VHH)
VHH: B8 VHH with A49G
notes: as for B8
B13: 1C12 (anti-huSOX2 VHH antibody clone) (VHH)
VHH: B8 VHH with T57S, Y59H
notes: as for B8
B14: 1C4 (anti-huSOX2 VHH antibody clone) (VHH)
VHH: EVQLVESGGGLVQPGGSLRLSCAASGGGFRGNAVMGWFRQAPGKERELVAAIRGSGEDTYYADSVKGRFTISADNSKNTAYLQMNSLKPEDTAVYYCAGGWRRGYFQDWGQGTLVTVSS
notes: as for B8
B15: 2E8 (anti-huSOX2 VHH antibody clone) (VHH)
VHH: B1 VHH
notes: as for B8
B16: 1B9 (anti-huSOX2 VHH antibody clone) (VHH)
VHH: EVQLVESGGGLVQPGGSLRLSCAASGLTFSTYSMGWFRQAPGKEREFVAAITWNSGRRTYYADSVKGRFTISADNSKNTAYLQMNSLKPEDTAVYYCASRVDDRVWGQGTLVTVSS
notes: as for B8
B17: 3F11 (anti-huSOX2 VHH antibody) (VHH)
VHH: B2 VHH
notes: Selected from a naive sdAb phage display library (Genscript Probio)

molecular target: T2, huSOX2 protein with N-terminal Halo tag (pHTN vector), expressed in HEK293T cells (human, UniProt P48431 1-317, HaloTag 618 ligand bound to the Halo tag); test: NanoBRET in HEK293T cells, NanoLuc-VHH and Halo-huSOX2
T2 construct: Expressed inside HEK293T cells (NanoBRET); not shown: Halo tag
T2 sequence (P48431 whole entry): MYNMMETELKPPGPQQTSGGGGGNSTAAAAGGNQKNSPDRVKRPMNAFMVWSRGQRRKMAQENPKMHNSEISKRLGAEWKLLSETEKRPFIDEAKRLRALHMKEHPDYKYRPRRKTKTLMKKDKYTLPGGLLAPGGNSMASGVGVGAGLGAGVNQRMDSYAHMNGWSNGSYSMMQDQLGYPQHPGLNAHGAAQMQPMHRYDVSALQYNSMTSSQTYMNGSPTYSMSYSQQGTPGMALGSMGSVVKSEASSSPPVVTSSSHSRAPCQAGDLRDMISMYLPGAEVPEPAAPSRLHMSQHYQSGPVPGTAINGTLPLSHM

| Binder | binding result |
| --- | --- |
| B1 | binds |
| B2 | binds |
| B3 | binds |

molecular target: huSOX2.V5 (huSOX2 with a V5-tag at the C-terminus) (human, UniProt P48431 1-317); test: cell-based or functional assay
Sequence (P48431 other isoform, or with tags, fused parts or gaps): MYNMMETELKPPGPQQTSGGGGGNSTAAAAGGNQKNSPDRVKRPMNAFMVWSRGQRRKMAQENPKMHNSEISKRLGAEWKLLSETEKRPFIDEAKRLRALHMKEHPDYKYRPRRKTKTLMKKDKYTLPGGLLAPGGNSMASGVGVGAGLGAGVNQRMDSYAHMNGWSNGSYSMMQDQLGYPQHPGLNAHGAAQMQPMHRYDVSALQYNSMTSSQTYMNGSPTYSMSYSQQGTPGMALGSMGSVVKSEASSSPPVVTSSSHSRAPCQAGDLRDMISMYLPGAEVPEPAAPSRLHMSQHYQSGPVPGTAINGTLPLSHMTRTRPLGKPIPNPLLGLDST

| Binder | SOX2 degradation capability compared to the control group (Mock) (HEK-293 cells) |
| --- | --- |
| B4 | ≥ 70% |
| B5 | ≥ 70% |
| B6 | ≥ 70% |
| B7 | ≥ 70% |

molecular target: T3, human SRY-box transcription factor 2 (huSOX2) with C-terminal 6×His-tag, produced by Biointron (human, UniProt P48431 1-317); test: 96-well ELISA screening of individual colonies, 20 ug/mL huSOX2
T3 construct: also called huSOX2 protein; biotinylated huSOX2 (Biointron)
T3 sequence (P48431 other isoform, or with tags, fused parts or gaps limits assumed): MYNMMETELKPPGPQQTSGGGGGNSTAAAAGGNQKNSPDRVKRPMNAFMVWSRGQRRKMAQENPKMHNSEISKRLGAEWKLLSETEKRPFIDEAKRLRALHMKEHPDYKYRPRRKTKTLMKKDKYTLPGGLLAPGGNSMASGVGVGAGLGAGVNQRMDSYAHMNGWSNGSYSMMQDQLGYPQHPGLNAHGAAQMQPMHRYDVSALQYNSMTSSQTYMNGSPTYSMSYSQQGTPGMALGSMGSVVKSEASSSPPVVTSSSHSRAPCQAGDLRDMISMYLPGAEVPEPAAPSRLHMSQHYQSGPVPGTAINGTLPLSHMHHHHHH

| Binder | binding result |
| --- | --- |
| B8 | binds |
| B9 | binds |
| B10 | binds |
| B11 | binds |
| B12 | binds |
| B13 | binds |
| B14 | binds |
| B15 | binds |
| B16 | binds |

molecular target: T1, huSOX3 with C-terminal 6×His-tag, …; test: selection from a naive sdAb phage display library, three rounds of panning

| Binder | binding result |
| --- | --- |
| B17 | no binding |

molecular target: T3, human SRY-box transcription factor 2 …; test: as above

| Binder | binding result |
| --- | --- |
| B17 | binds |

molecular target: CynoSOX2 with C-terminal 6×His-tag, produced by Biointron (cyno, UniProt P48431 45-317 (human entry), limits assumed); test: as above
Sequence (P48431 other isoform, or with tags, fused parts or gaps limits assumed): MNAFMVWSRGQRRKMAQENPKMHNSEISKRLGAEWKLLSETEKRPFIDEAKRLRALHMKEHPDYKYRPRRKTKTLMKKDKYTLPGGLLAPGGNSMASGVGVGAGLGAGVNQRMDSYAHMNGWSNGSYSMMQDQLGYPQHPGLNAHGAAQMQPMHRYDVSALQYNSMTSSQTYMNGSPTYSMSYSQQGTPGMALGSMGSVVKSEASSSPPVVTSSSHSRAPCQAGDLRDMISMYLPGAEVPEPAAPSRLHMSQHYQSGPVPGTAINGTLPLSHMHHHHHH

| Binder | binding result |
| --- | --- |
| B17 | binds |
